Columns and labels:
[1] = target: T1, integrin αvβ3 (Mus musculus, UniProt O54890+P43406); settings: mouse cells; Cheresh, 1987; cited from earlier work
T1 sequence (P43406 31-885 limits assumed): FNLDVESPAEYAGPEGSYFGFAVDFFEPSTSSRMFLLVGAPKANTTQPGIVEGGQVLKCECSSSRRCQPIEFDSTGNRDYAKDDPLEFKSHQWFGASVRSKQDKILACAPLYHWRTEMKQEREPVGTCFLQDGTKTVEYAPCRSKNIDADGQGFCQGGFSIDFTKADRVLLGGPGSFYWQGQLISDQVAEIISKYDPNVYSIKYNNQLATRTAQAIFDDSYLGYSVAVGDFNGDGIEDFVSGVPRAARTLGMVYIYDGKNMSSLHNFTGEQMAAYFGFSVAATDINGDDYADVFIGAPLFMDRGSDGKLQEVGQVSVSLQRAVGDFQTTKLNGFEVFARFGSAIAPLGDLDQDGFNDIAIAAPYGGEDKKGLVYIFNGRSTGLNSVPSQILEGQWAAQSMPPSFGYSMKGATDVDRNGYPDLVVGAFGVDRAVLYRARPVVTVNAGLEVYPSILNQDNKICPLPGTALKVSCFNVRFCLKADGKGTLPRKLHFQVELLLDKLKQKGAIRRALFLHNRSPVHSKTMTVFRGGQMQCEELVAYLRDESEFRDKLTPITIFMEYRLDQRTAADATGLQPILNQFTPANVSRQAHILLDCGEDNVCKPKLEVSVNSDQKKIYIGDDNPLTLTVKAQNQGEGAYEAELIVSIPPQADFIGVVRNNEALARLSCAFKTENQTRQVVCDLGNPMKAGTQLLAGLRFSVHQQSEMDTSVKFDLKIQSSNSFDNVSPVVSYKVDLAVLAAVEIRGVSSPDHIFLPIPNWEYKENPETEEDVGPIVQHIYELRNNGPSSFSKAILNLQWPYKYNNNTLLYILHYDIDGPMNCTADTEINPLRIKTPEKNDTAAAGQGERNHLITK
T1 sequence (P43406 887-1044 limits assumed): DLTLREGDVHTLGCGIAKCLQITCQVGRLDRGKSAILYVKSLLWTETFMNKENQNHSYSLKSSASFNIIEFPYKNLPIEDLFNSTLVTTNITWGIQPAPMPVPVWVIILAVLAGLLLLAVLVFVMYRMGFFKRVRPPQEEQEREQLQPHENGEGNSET
T1 sequence (O54890 26-787): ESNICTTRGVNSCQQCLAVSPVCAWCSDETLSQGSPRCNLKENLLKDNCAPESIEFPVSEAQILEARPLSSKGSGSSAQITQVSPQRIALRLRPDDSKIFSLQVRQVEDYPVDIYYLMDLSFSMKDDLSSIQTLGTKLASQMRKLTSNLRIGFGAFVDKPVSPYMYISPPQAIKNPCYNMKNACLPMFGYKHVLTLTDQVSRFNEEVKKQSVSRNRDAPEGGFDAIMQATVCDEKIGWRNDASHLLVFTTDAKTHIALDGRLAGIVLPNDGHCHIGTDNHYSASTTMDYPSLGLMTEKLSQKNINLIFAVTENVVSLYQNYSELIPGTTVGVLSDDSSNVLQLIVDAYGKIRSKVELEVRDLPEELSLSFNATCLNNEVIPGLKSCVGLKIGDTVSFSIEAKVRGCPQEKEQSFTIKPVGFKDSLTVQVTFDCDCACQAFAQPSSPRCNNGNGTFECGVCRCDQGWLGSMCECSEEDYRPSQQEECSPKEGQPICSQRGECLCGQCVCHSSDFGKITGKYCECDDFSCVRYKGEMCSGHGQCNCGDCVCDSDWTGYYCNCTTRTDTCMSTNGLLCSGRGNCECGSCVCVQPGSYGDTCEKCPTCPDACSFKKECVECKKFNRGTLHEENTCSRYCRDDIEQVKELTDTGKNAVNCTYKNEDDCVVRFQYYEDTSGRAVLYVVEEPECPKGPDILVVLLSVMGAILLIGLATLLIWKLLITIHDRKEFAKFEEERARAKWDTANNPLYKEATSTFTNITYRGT

[2] = tested on: tumor cells; experiment: In vitro ADCC with mouse NK cells; format: cell-based; settings: effector: mouse NK cells
Method: (§1) We used the isolated macrophages as effector cells in an antibody-dependent cellular-cytotoxicity (ADCC) assay. […] The ratio of dead target cells (PI-positive) to the total target cell population (CFSE-positive) was calculated as described (Bracher, 2007).
(§2) To our surprise, LM609-mediated ADCC was not achieved with mouse NK cells or peripheral blood mononuclear cells (PBMCs) isolated from human blood, immune effector cell types to which antibodies are commonly engineered for optimal binding (Listinsky, 2013; Yu, 2017). In fact, NK cells are not correlated with β3 expression in tumors. These findings were reported in FIG. 3E of Wettersten et al., Cancer Res. 79:5048 (2019).

[3] = tested on: tumor cells; experiment: In vitro ADCC with human PBMCs; format: cell-based; settings: effector: PBMCs isolated from human blood
Method: (§3) Human peripheral blood mononuclear cells (PBMCs) and macrophages were isolated using leukoreduction system chambers (LRSC) purchased from the San Diego Blood Bank. PBMCs were isolated from LRSC using Histopaque-1083 (Sigma, 10831) following the manufacturer's protocol. To obtain macrophages, PBMCs were incubated in tissue culture plates with human M-CSF (Peprotech, 300-25) for 5 days.
as §1, §2

[4] = tested on: αvβ3-expressing human lung xenograft tumors; experiment: αvβ3-expressing human lung xenograft with or without macrophage depletion; format: in vivo, nude mice
Source text: Successful depletion of macrophages by clodronate treatment was confirmed by staining tumor sections for the mouse macrophage marker F4/80.

[5] = tested on: tumor cells; experiment: In vitro ADCC with human monocyte-derived macrophages from healthy donor blood (LM609); format: cell-based; settings: effector: human monocyte-derived macrophages from healthy donor blood
Method: as §3, §1

B1: LM609: mouse monoclonal IgG1K antibody that recognizes human integrin αvβ3; SEQ ID NO:11 and 12 (antibody)
heavy: MNFGLRLIFLVLTLKGVKCEVQLVESGGGLVKPGGSLKLSCAASGFAFSSYDMSWVRQIPEKRLEWVAKVSSGGGSTYYLDTVQGRFTISRDNAKNTLYLQMSSLNSEDTAMYYCARHNYGSFAYWGQGTLVTVSAAKTTPPSVYPLAPGSAAQTNSMVTLGCLVKGYFPEPVTVTWNSGSLSSGVHTFPAVLQSDLYTLSSSVTVPSSTWPSETVTCNVAHPASSTKVDKKIVPRDCGCKPCICTVPEVSSVFIFPPKPKDVLTITLTPKVTCVVVDISKDDPEVQFSWFVDDVEVHTAQTQPREEQFNSTFRSVSELPIMHQDWLNGKEFKCRVNSAAFPAPIEKTISKTKGRPKAPQVYTIPPPKEQMAKDKVSLTCMITDFFPEDITVEWQWNGQPAENYKNTQPIMDTDGSYFVYSKLNVQKSNWEAGNTFTCSVLHEGLHNHHTEKSLSHSPGK
light: MVFTPQILGLMLFWISASRGDIVLTQSPATLSVTPGDSVSLSCRASQSISNHLHWYQQKSHESPRLLIKYASQSISGIPSRFSGSGSGTDFTLSINSVETEDFGMYFCQQSNSWPHTFGGGTKLEIKRADAAPTVSIFPPSSEQLTSGGASVVCFLNNFYPKDINVKWKIDGSERQNGVLNSWTDQDSKDSTYSMSSTLTLTKDEYERHNSYTCEATHKTSTSPIVKSFNRNEC
modifications: mAb LM609-mIgG1-kappa Heavy chain; mAb LM609-mIgG1-kappa Light chain
recognition of integrin αvβ3 [1]: not mouse cells
LM609-mediated ADCC [2]: not achieved
LM609-mediated ADCC [3]: not achieved
anti-tumor effect after macrophage depletion ([4]; macrophage depletion using clodronate liposomes): completely blocked
sensitivity of xenograft tumors to LM609 ([4]; reported in FIG. 2A of Wettersten et al.): highly sensitive
ADCC (tumor cell killing) [5]: could also kill tumor cells

— patent US20230140868A1, “COMPOSITIONS AND METHODS FOR TREATING CANCER” (Alpha Beta Holdings, LLC, priority 2020, published 2023)
